Test results taken from patent US20260176346A1.

Target: recombinant human VEGF (R&D Systems, 293-VE-010) (human) (UniProt P15692)
Experiment: Octet HTX biosensor (BLI); positive control antibody at 10 ug/mL in 1x kinetics buffer; recombinant human VEGF in 1:2 series, 200 nM to 3.125 nM

UniProt P15692, sequence (P15692 other isoform, or with tags, fused parts or gaps limits assumed): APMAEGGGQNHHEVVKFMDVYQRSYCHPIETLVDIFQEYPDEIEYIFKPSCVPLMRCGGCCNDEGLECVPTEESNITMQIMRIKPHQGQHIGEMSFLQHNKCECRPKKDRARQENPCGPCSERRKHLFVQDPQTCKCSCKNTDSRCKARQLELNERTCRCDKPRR

Kd: 0.229 nM
koff: 7.77e-05 s⁻¹
kon: 340000 M⁻¹ s⁻¹
Substance: mouse anti-human VEGF monoclonal antibody (anti-hVEGF MmAb; R&D Systems, MAB293-100)
